Reference: patent publication US20260022144A1, “ANALGESIC POLYPEPTIDE” (Shanghai Puyou Biomedical Co., Ltd., priority 2022, published 2026)

B1: SEQ ID NO: 49: artificial polypeptide of formula (III) X-Y (protein)
chain: STKKQPVDLGLLETDSEFTEFPATSWAGLSESESAHVWTSNWDSSNVTSDFSNQLRATVLLMILVCETPYGCYVLHQKGRMCSAFLCC
B2: SEQ ID NO: 90: artificial polypeptide of formula (VI) X-Y (protein)
chain: STKKQPVDLGLLETDSEFTEFPATSWAGLSESESAHVWTSNWDSSNVTSDFSNQLRATVLLMILVAETPYGAYVLHQKGRMASAFLAA
B3: SEQ ID NO: 57: artificial polypeptide of formula (I) X-Y; also listed for peripheral neuropathic pain (protein)
chain: SEKKQPVDLGLLEEDDEFEEFPAEDWAGLDEDEDAHVWEDNWDDDNVTSDFSNQLRATVLLMI
B4: SEQ ID NO: 28: polypeptide of SEQ ID NO: 28 for treating or preventing peripheral neuropathic pain (protein)
chain: SEKKQPVDLGLLEEDDEFEEFPAEDWAGLDEDEDAHVWEDNWDDDNVEDDFSNQLRATVLLMILVCETPYGCYVLHQKGRMCSAFLCC
B5: SEQ ID NO: 93: artificial polypeptide of formula (VI) or (I) X-Y (protein)
chain: SEKKQPVDLGLLEEDDEFEEFPAEDWAGLDEDESAHVWEDNWDDDNVTSDFSNQLRATVLLMILVAETPYGAYVLHQKGRMASAFLAA
B6: SEQ ID NO: 75: artificial polypeptide of formula (I) X-Y (protein)
chain: SEKKQPVDLGLLEEDDEFEEFPAEDWAGLDEDEDAHVWEDNWDDDNVEDDFSNQLRATVLLMILVAETPYGAYV

What was measured:
[1] = system: VZV-induced pain model in rats; assay: VZV-induced pain model in rats, mechanical allodynia (von Frey) test; type: in vivo, rat; conditions: 10 mg polypeptide/kg i.v., single administration, tested 0.5 h after administration
Procedure: A summary of the method for inducing pain model in rats by means of subcutaneous VZV inoculation is provided hereinafter. Briefly, male Sprague Dawley (SD) rats were deeply anesthetized by intraperitoneal injection of a Zoletil R: 50 (30 mg/kg)/xylazine (6 mg/kg) anesthetic at an injection volume of 6 mL/kg, and then the virus inoculation was performed by subcutaneous injection at the footpad area. The infection dose was 22800 TCID50 per animal, and the infection volume was 150 μL for all rats.
Administration was performed on alternate days. Briefly, the test articles were administered by subcutaneous injection at the footpad area on Day 1 and Day 3, respectively. As for Group 2, the administration of SEQ ID NO: 29 was initiated from the first concentration. Namely, the first concentration (10 μg/mL) was administered on Day 1, and the second concentration (20 μg/mL) was administered on Day 3. Pain was measured once after each administration.
Mechanical allodynia tests (also called “von Frey tests”) for pain measurements were performed on the rats one hour after administration of the test articles on Day 1 and Day 3, respectively. In the behavioral test for rats, mechanical allodynia is expressed as the 50% paw withdrawal threshold (PWT), which is calculated according to the following formula:
[formula] • wherein • Xf=final test fiber value used in the test • k=tabular value for the pattern of positive/negative responses (Chaplan et al. 1994, page 62) • δ=mean difference.
Briefly, the rats were placed individually in plexiglass boxes with a grid at the bottom to ensure that the rats' feet could be tested. The rats were acclimated to the environment for 15 minutes prior to the test. After the acclimation was completed, pain (mechanical allodynia) was tested on the center of the sole of the left hind foot of the rats using test fibers. The test fibers included 8 test strengths: 3.61 (0.4 g), 3.84 (0.6 g), 4.08 (lg), 4.31 (2 g), 4.56 (4 g), 4.74 (6 g), 4.93 (8 g) and 5.18 (15 g). During the test, the test fibers were pressed vertically against the skin and forces were applied to bend the fibers for 6-8 seconds with a 5-second interval between each test. During the test, a pain response was recorded if the animals quickly withdrew their feet. The pain response was also recorded if the animal withdrew their feet as the test fibers left the animal's skin. The pain response was not recorded if the animal moved or ambulated, and the test should be repeated. The test was started with 4.31 (2 g). If the animal had pain response, the next test should be performed with a test fiber with a lower strength: if the animal has no pain response, the next test should be performed with a test fiber with a higher strength. The maximum strength of the tested fibers was 5.18 (15 g). The test results were recorded in a table, wherein the presence of pain response was recorded as “x”, and the absence of pain response was recorded as “0”.
The rats were randomly divided into 2 groups, with 8 rats in the placebo group (Group 1, administered with vehicle (normal saline)) and 8 rats in the treatment group (Group 2, administered with 30 mg SEQ ID NO: 29/kg). Briefly, the test articles were administered to the rats on a single day by intravenous injection.
Mechanical allodynia tests were performed on the rats 0.5 h after administration of the test articles according to the method as recited in Example 1, respectively.
The rats were randomly divided into 3 groups, with 8 rats in the placebo group (Group 1, administered with vehicle (normal saline)) and 16 rats in the treatment groups (Groups 2 and 3, 8 rats/group, administered with various polypeptides). Briefly, vehicle (normal saline) was administered to the rats from Group 1 and various polypeptides were administered to the rats from Group 2 (SEQ ID: 29, SEQ ID: 57 and SEQ ID: 49; 10 mg polypeptide/kg) and 3 (SEQ ID: 75 and SEQ ID: 28: 10 mg polypeptide/kg) on a single day by intravenous injection.

SNL pain model in rats = assay: SNL (spinal nerve ligation) pain model in rats, mechanical allodynia test; type: in vivo, rat; conditions: SD rats, i.v. single administration (SEQ ID NO: 29 30 and 60 mg/kg; SEQ ID NO: 90 and 93 60 mg/kg), 1 h after administration
Procedure: A summary of the method for inducing pain model in rats by means of spinal nerve ligation is provided hereinafter. Briefly, male SD rats were anesthetized with Zoletil R 50+xylazine hydrochloride (20 mg/kg+8 mg/kg, intraperitoneal injection). The surgical areas on the waist regions of the animals were shaved, and the skin was disinfected with iodophor and 70% v/v ethanol for three times. The left spinal nerves L5 and L6 of the animals were isolated, tightly ligated with 6-0 silk suture, and the wounds were sutured.
On the 11th day post operation, the animals were acclimated to the experimental environment, 15 minutes/day, for 3 consecutive days.
Briefly, after SNL modeling, 24 animals were randomly divided into 3 groups (Groups 2, 3 and 4, N=8/group). Group 1 (a Sham group, for which the 10 animals received essentially the same operation procedure as other groups but their left spinal nerves L5 and L6 were neither isolated nor ligated) was used as the control group. The test articles were administrated to the animals according to the protocol shown in Table 5, and mechanical allodynia tests were respectively performed 1h after administration according to the method as recited in Example 1.
Briefly, after SNL modeling, 30 animals were randomly divided into 3 groups (Group 1, N=6/group; Groups 2 and 3, N=12/group). Various polypeptides of the present disclosure were administered to the animals from Groups 2 and 3, and the animals were subjected to mechanical allodynia tests 1 h after administration according to the method as recited in Example 1.

Row | Molecule | analgetic effect (50% PWT) [1] | analgetic effect (50% PWT) (SNL pain model in rats)
1 | B1 | apparent analgetic effect | –
2 | B2 | – | certain analgetic effect
3 | B3 | apparent analgetic effect | –
4 | B4 | apparent analgetic effect | –
5 | B5 | – | certain analgetic effect
6 | B6 | apparent analgetic effect | –
